The values that follow are results of earlier work, collected in patent US6964771B1, “Method for stably incorporating substances within dry, foamed glass matrices” (Elan Drug Delivery Limited, priority 1995, dated 2005).

The conditions of the data set: as delivered, dosage of 300 μg.

B1: Neupogen®: biopharmaceutical delivered at a dosage of 300 μg (protein, chains of the INN, looked up)
chain: MTPLGPASSLPQSFLLKCLEQVRKIQGDGAALQEKLCATYKLCHPEELVLLGHSLGIPWAPLSSCPSQALQLAGCLSQLHSGLFLYQGLLQALEGISPELGPTLDTLQLDVADFATTIWQQMEELGMAPALQPTQGAMPAFASAFQRRAGGVLVASHLQSFLEVSYRVLRHLAQP
On to B1, for which the specific activity is 1±0.6×10^8 U/mg.
